Measured values published in article PMC4552487 (EMBO Reports, 2015).

Experiments:
Conditions in all cases: both partners purified
[1] = molecular target: Ser65-phosphorylated ubiquitin (ubiquitin^Phospho-Ser65) (bovine, UniProt P0CG53 1-76, phosphoserine at 65); test: ITC; ubiquitin^PhosSer65 in the syringe titrated into 50 μM wild-type or mutant Parkin in the cell; 50 mM HEPES pH 8.0, 150 mM NaCl, 500 μM TCEP; 20°C; single binding site model
[2] = molecular target: Ser65-phosphorylated Dac-ubiquitin (Dac-ubiquitin^PhosSer65) (UniProt P0CG47 1-76, phosphoserine at 65 of ubiquitin); test: SEC; Superdex 200 Increase 10/300 GL; 50 mM Tris pH 7.5, 150 mM NaCl; 100 μg of each protein, mixtures incubated for 30 min before chromatography
[3] = molecular target: T1, Parkin (80-465)-Biotin, wild type (UniProt O60260 80-465, biotin (position not given)); test: AlphaScreen or HTRF; GST-Ubl (1-76) on glutathione acceptor beads and Parkin (80-465)-biotin (WT or H302A) on streptavidin donor beads, 10 nM each; inhibitor proteins in three-fold 10-point dilutions; PBS + 0.1% BSA + 0.1% Triton X-100; RT
T1 sequence (looked up): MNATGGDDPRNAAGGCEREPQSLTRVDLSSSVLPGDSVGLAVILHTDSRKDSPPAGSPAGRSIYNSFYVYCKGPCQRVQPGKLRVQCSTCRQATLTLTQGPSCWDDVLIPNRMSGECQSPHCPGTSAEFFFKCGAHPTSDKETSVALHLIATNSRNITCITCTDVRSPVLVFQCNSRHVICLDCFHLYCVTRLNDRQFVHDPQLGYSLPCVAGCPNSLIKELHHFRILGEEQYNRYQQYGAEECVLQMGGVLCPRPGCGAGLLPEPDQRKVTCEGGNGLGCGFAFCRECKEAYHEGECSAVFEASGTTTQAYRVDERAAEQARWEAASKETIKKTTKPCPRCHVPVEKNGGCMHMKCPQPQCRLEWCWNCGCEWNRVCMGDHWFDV

B1: full-length Parkin Lys151Ala (K151A) mutant, untagged (enzyme, UniProt O60260 1-465, looked up)
chain: MIVFVRFNSSHGFPVEVDSDTSIFQLKEVVAKRQGVPADQLRVIFAGKELRNDWTVQNCDLDQQSIVHIVQRPWRKGQEMNATGGDDPRNAAGGCEREPQSLTRVDLSSSVLPGDSVGLAVILHTDSRKDSPPAGSPAGRSIYNSFYVYCAGPCQRVQPGKLRVQCSTCRQATLTLTQGPSCWDDVLIPNRMSGECQSPHCPGTSAEFFFKCGAHPTSDKETSVALHLIATNSRNITCITCTDVRSPVLVFQCNSRHVICLDCFHLYCVTRLNDRQFVHDPQLGYSLPCVAGCPNSLIKELHHFRILGEEQYNRYQQYGAEECVLQMGGVLCPRPGCGAGLLPEPDQRKVTCEGGNGLGCGFAFCRECKEAYHEGECSAVFEASGTTTQAYRVDERAAEQARWEAASKETIKKTTKPCPRCHVPVEKNGGCMHMKCPQPQCRLEWCWNCGCEWNRVCMGDHWFDV
- Kd [1]: ~7 µM

B2: Parkin 1-465 S65A (enzyme, UniProt O60260 1-465, looked up)
chain: MIVFVRFNSSHGFPVEVDSDTSIFQLKEVVAKRQGVPADQLRVIFAGKELRNDWTVQNCDLDQQAIVHIVQRPWRKGQEMNATGGDDPRNAAGGCEREPQSLTRVDLSSSVLPGDSVGLAVILHTDSRKDSPPAGSPAGRSIYNSFYVYCKGPCQRVQPGKLRVQCSTCRQATLTLTQGPSCWDDVLIPNRMSGECQSPHCPGTSAEFFFKCGAHPTSDKETSVALHLIATNSRNITCITCTDVRSPVLVFQCNSRHVICLDCFHLYCVTRLNDRQFVHDPQLGYSLPCVAGCPNSLIKELHHFRILGEEQYNRYQQYGAEECVLQMGGVLCPRPGCGAGLLPEPDQRKVTCEGGNGLGCGFAFCRECKEAYHEGECSAVFEASGTTTQAYRVDERAAEQARWEAASKETIKKTTKPCPRCHVPVEKNGGCMHMKCPQPQCRLEWCWNCGCEWNRVCMGDHWFDV
- binding result [2]: binds

B3: GST-Ubl (Parkin Ubl domain, residues 1-76) (domain or fragment, UniProt O60260 1-76, looked up)
chain: MIVFVRFNSSHGFPVEVDSDTSIFQLKEVVAKRQGVPADQLRVIFAGKELRNDWTVQNCDLDQQSIVHIVQRPWRK
- binding result [3]: binds
